Measured values as given in patent EP4248993A1 (Charité - Universitätsmedizin Berlin, dated 2023).

Legend:
[1] = target: MERS-CoV RBD Twin-Strep His (wild type, G372-L588) (MERS-CoV); assay: ELISA (Figure 6A)
[2] = target: MERS-CoV RBD Twin-Strep His (wild type, G372-L588) (MERS-CoV); assay: BLI, RBD Twin-Strep His on anti-Penta-His biosensor, global 1:1 fit
[3] = target: MERS-CoV RBD Twin-Strep His (wild type, G372-L588) (MERS-CoV); assay: as above; remark: listed apart in the source

B1: recombinant mouse DPP4 (mDPP4) (receptor)
chain: SKDEAAADSRRTYSLADYLKSTFRVKSYSLWWVSDFEYLYKQENNILLLNAEHGNSSIFLENSTFESFGYHSVSPDRLFVLLEYNYVKQWRHSYTASYNIYDVNKRQLITEEKIPNNTQWITWSPEGHKLAYVWKNDIYVKVEPHLPSHRITSTGEENVIYNGITDWVYEEEVFGAYSALWWSPNNTFLAYAQFNDTGVPLIEYSFYSDESLQYPKTVWIPYPKAGAVNPTVKFFIVNIDSLSSSSSAAPIQIPAPASVARGDHYLCDVVWATEERISLQWLRRIQNYSVMAICDYDKINLTWNCPSEQQHVEMSTTGWVGRFRPAEPHFTSDGSSFYKIISDKDGYKHICHFPKDKKDCTFITKGAWEVISIEALTSDYLYYISNQYKEMPGGRNLYKIQLTDHTNVKCLSCDLNPERCQYYAVSFSKEAKYYQLGCWGPGLPLYTLHRSTDHKELRVLEDNSALDRMLQDVQMPSKKLDFIVLNETRFWYQMILPPHFDKSKKYPLLLDVYAGPCSQKADASFRLNWATYLASTENIIVASFDGRGSGYQGDKIMHAINRRLGTLEVEDQIEAARQFVKMGFVDSKRVAIWGWSYGGYVTSMVLGSGSGVFKCGIAVAPVSRWEYYDSVYTERYMGLPIPEDNLDHYRNSTVMSRAEHFKQVEYLLIHGTADDNVHFQQSAQISKALVDAGVDFQAMWYTDEDHGIASSTAHQHIYSHMSHFLQQCFSLH
binding result [1]: no binding

B2: recombinant rabbit DPP4 with C-terminal 6xHis-tag (rbDPP4-His) (receptor)
chain: NKGNHEYLHRQEDNILLFNAEYGNSSLFLANITFDEFGHSITDYSVSPDRLFLLLEYNYVKQWRHSYTASYDIYDLNKRQLITEERIPNNTQWITWAPEGHRLAYVWNNDIYVKLEPNLPSQRITWTGKADVIYNGITDWVYEEEVFSAYSALWWSPNGTFLAYAQFNDTGVPLIEYSFYSDEALQYPKTVRIPYPKAGAVNPTVRFFVVNTDSLSSITNATSVQITAPASMLIGDHYLCDVTWVTHERISLQWLRRIQNYSVMDICDYDRSSGRWNCLVARQHIEMSTTGWVGRFRPAEPHFTSDGNSFYKIMSNEEGYKHICYSLIDNQSCTFITRGAWEVIGIEALTSDYLYYISNEYKGMPGGRNLYKIQLTDHTKVTCLSCELKPERCQYYSVSFGKGAKYYQLRCSGPGLPLYTLHSSVNDQELRVLEDNSALDEMLQDVQMPSKTLDFIILNETKFWYQMVLPPHFDKSKKYPLLLEVYAGPCSQRADAIFRLNWATYLASTENIIVASFDGRGSGYQGDKIMHAINRRLGTLEVEDQIEAARQFSKMGFVDNERIAIWGWSYGGYVTSMVLGSGSGVFKCGIAVAPVSRWEYYDSIYTERYMGLPTPEDNLDHYRNSTVMSRAENFKQVEYLLIHGTADDNVHFQQSAQISKALVDAGVDFQAMWYTDEDHGIDSSTAHQHIYTHMSHFIKQCFSLHHHHHH
Kd [2]: 34.3 nM

B3: recombinant human DPP4 with N-terminal 8xHis-tag (hDPP4-N'His) (receptor)
chain: HHHHHHHHGGGSGGGSGGGSDSRKTYTLTDYLKNTYRLKLYSLRWISDHEYLYKQENNILVFNAEYGNSSVFLENSTFDEFGHSINDYSISPDGQFILLEYNYVKQWRHSYTASYDIYDLNKRQLITEERIPNNTQWVTWSPVGHKLAYVWNNDIYVKIEPNLPSYRITWTGKEDIIYNGITDWVYEEEVFSAYSALWWSPNGTFLAYAQFNDTEVPLIEYSFYSDESLQYPKTVRVPYPKAGAVNPTVKFFVVNTDSLSSVTNATSIQITAPASMLIGDHYLCDVTWATQERISLQWLRRIQNYSVMDICDYDESSGRWNCLVARQHIEMSTTGWVGRFRPSEPHFTLDGNSFYKIISNEEGYRHICYFQIDKKDCTFITKGTWEVIGIEALTSDYLYYISNEYKGMPGGRNLYKIQLSDYTKVTCLSCELNPERCQYYSVSFSKEAKYYQLRCSGPGLPLYTLHSSVNDKGLRVLEDNSALDKMLQNVQMPSKKLDFIILNETKFWYQMILPPHFDKSKKYPLLLDVYAGPCSQKADTVFRLNWATYLASTENIIVASFDGRGSGYQGDKIMHAINRRLGTFEVEDQIEAARQFSKMGFVDNKRIAIWGWSYGGYVTSMVLGSGSGVFKCGIAVAPVSRWEYYDSVYTERYMGLPTPEDNLDHYRNSTVMSRAENFKQVEYLLIHGTADDNVHFQQSAQISKALVDVGVDFQAMWYTDEDHGIASSTAHQHIYTHMSHFIKQCFSLP
notes: range 38-766
Kd [3]: 7.8 nM
